# T1: Gα12 (Homo sapiens, UniProt Q03113)
# T1 construct: host or cells: HEK293
# T1 sequence (Q03113 1-381): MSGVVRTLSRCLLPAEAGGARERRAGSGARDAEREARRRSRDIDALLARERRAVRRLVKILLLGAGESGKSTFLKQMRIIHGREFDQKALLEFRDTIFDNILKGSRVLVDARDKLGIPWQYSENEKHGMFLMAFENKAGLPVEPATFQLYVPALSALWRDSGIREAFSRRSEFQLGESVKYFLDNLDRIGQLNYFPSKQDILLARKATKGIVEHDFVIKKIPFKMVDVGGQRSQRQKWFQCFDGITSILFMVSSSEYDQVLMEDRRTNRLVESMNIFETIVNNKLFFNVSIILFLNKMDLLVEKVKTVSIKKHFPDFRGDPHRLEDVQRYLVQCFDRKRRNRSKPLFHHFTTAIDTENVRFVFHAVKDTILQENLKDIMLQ
# T2: Gα13 (Homo sapiens, UniProt Q14344)
# T2 sequence (Q14344 1-377): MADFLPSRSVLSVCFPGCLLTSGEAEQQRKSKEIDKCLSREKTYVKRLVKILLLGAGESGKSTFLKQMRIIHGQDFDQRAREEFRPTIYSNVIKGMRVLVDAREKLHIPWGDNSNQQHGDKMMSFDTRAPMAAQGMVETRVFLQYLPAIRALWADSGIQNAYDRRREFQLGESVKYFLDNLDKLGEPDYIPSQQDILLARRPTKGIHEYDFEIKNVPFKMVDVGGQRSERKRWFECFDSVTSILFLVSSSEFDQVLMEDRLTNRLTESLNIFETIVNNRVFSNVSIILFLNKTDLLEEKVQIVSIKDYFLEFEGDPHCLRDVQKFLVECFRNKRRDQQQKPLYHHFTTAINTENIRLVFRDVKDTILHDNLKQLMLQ
# T3: Gαq (Homo sapiens, UniProt P50148)
# T3 sequence (P50148 1-359): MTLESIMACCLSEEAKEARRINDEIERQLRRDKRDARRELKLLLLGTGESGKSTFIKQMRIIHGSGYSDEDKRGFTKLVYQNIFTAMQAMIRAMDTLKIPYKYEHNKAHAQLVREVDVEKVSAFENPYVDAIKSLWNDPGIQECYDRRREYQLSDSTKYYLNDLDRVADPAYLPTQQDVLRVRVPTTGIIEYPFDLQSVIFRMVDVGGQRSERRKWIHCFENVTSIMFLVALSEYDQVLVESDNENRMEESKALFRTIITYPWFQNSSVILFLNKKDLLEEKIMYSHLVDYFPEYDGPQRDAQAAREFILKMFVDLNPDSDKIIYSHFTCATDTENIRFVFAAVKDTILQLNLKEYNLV
# Columns and labels:
# [1] = target: T4, DOR receptors (Homo sapiens, UniProt P41143); experiment: Activation of DOR in HEK293 membranes read by TR-FRET (fluorescent GTP analog + labeled antibody); type: biochemical; conditions: SNC162 10 μM; read as increase of FRET signal with DSV36S-d2 / DSV38S-d2
# T4 construct: expressed in transfected cells; host or cells: HEK293 membranes
# Method: (§1) HEK293 membranes expressing the DOR receptor were prepared 4× for a final amount in the wells of 10 μg. The antibodies DSV36S-d2, DSV38S-d2, SC13533-d2 and anti-FLAG-d2 were prepared 4× for a final concentration in the wells of 10 nM.
# (§2) The reagents were distributed in the 384-well plates as follows: • 1) 5 μl of DOR membranes was put in each well, • 2) 5 μl of GTPgN-octyl-C2 labeled with europium cryptate or GTPgO-linker-Cy5 was added to each well, • 3) 5 μl of antibody DSV36S or DSV38S or SC13533 or DSV 26S or DSV3S or DSV 39S labeled with d2 or DSV 36S or SC13533 labeled with terbium cryptate was added to each well, • 4) 5 μl of buffer or SNC 162 or GTPgS was added to each well.
# (§3) The plates were incubated for 20 h at room temperature before reading the HTRF signal.
# [2] = target: Delta Opioid GPCR (Homo sapiens, UniProt P41143); experiment: Activation assay format 2A on Delta Opioid GPCR, agonist/antagonist modulation of TR-FRET signal; conditions: fixed SNC162 200 nM; increasing concentration of antagonist; GTPgN-octyl-C2 + DSV36S-d2; FIG. 16B
# [3] = target: T5, Gαi1 (Homo sapiens, UniProt P63096); experiment: Determination of affinity (Kd) of d2-labeled antibodies for G-protein αi1 by HTRF/FRET; type: binding
# Method: These two reagents were prepared in one and the same solution and were preincubated for 30 minutes at room temperature before being distributed in the wells. The antibodies DSV36S-d2, DSV38S-d2 and SC13533-d2 were prepared 4× for final concentrations in the wells between 0.01 and 10 nM depending on the antibodies.
# The reagents were distributed in the 384-well plates as follows: • 1) 10 μl of the preincubation mixture of G-protein αi1+buffer only or GTPgS or GDP was put in each well, • 2) 5 μl of the antibody DSV36S or DSV38S or SC13533 labeled with d2 was added to each well, • 3) 5 μl of the anti Twin-Strep-tag-Lumi4 Tb antibody was added to each well.
# The plates were incubated for 24 h at room temperature before reading the HTRF signal.
# Moreover, the antibody titration curves obtained make it possible to calculate the affinity (Kd) of these different antibodies for the G-protein αi1. This was carried out using the GraphPad Prism software by applying a “one site specific binding” model to the HTRF data.
# [4] = target: T5, Gαi1; experiment: HTRF competition: unlabeled antibodies versus binding of SC13533-d2 on G-protein αi1; conditions: unlabeled antibody 0.01-100 nM; SC13533-d2 10 nM; GTPgS 10 μM
# Method: (§4) These two reagents were prepared in one and the same solution and were preincubated for 30 minutes at room temperature before being distributed in the wells. The cold antibodies DSV36S, DSV38S and SC13533 were prepared 4× for final concentrations in the wells between 0.01 and 100 nM. The antibody SC 13533-d2 was prepared 4× for a final concentration of 10 nM.
# (§5) The reagents were distributed in the 384-well plates as follows: • 1) 10 μl of the preincubated mixture of G-protein αi1+GTPgS was put in each well, • 2) 5 μl of the unlabeled antibody DSV36S or DSV38S or SC56536 or AM05302PU-N or SC13533 was added to each well, • 3) The plates were incubated for 30 minutes at room temperature, • 4) 5 μl of the anti Twin-Strep-tag-Lumi4 Tb antibody and of the antibody SC13533-d2 were added to each well.
# (§6) The plates were incubated for 1 h at room temperature before reading the HTRF signal.
# [5] = target: T5, Gαi1; experiment: HTRF competition: unlabeled antibodies versus binding of DSV36S-d2 on G-protein αi1; conditions: unlabeled antibody 0.001-1 μM; DSV36S-d2 10 nM; GTPgS 100 μM
# Method: as §4, with “DSV38S, DSV26S, DSV3S,” for “DSV38S”, “DSV39S” for “SC13533”, “0.001” for “0.01”, “1 μM.” for “100 nM.”, “DSV36S-d2” for “SC 13533-d2”
# as §5, with “antibodies DSV36S, DSV38S, DSV26S, DSV3S, and DSV39S” for “antibody DSV36S or DSV38S or SC56536 or AM05302PU-N or SC13533”, “DSV36S-d2” for “SC13533-d2”
# as §6
# [6] = target: T1, Gα12; experiment: HTRF selectivity assay, G-protein α overexpressed in HEK293 cells; type: binding; conditions: antibody-d2 10 nM, 20 h
# Method: (§7) A solution containing 1 million HEK cells/ml was prepared in OptiMEM medium. Mixtures of plasmids/Lipofectamine containing 150 ng/well of plasmids and 0.375 μl of lipofectamine were prepared in OptiMEM medium 30 minutes before adding them to the 96-well plate with black-bottomed wells.
# (§8) Distribution of the reagents in each well of the black microplate suitable for cell culture: • 1) 50 μl per well of polyornithine was incubated for 30 minutes at room temperature and then the solution was withdrawn from each well by aspiration. • 2) 50 μl of the preparation of HEK293 (cell density of 50000 cells per well) was added to each well • 3) 50 μl of the mixture of plasmids coding for a G-protein+lipofectamine was added to each well.
# (§9) The microplates were incubated for 24 h at 37° C. and 5% CO2 (regulated stove).
# (§10) The antibodies DSV36S-d2, DSV38S-d2 and SC13533-d2 were prepared 4× for a final concentration in the wells of 10 nM.
# (§11) The reagents were distributed on the 384-well plates as follows: • 1) The OptiMEM culture medium was aspirated, • 2) 25 μl of buffer or GDP or GTP was added to each well, • 3) 25 μl of buffer was added to each well, • 4) 25 μl of antibody DSV36S-d2 or DSV38S-d2 or SC13533-d2 or anti-FLAG-d2 was added to each well, • 5) 25 μl of anti Twin-Strep-tag-Lumi4 Tb antibody was added to each well.
# (§12) The microplates were incubated for 20 h at room temperature before reading the HTRF signal.
# [7] = target: T2, Gα13; experiment: as above; type: binding; conditions: antibody-d2 10 nM, 20 h
# Method: as §7, §8, §9, §10, §11, §12
# [8] = target: T5, Gαi1; experiment: as above; type: binding; conditions: antibody-d2 10 nM, 20 h
# Method: as §7, §8, §9, §10, §11, §12
# [9] = target: Gαi2 (Homo sapiens, UniProt P04899); experiment: as above; type: binding; conditions: antibody-d2 10 nM, 20 h
# Method: as §7, §8, §9, §10, §11, §12
# [10] = target: T6, Gαi3 (Homo sapiens, UniProt P08754); experiment: as above; type: binding; conditions: antibody-d2 10 nM, 20 h
# T6 construct: host or cells: HEK293
# Method: as §7, §8, §9, §10, §11, §12
# [11] = target: Gαo (Homo sapiens, UniProt P09471); experiment: as above; type: binding; conditions: antibody-d2 10 nM, 20 h
# Method: as §7, §8, §9, §10, §11, §12
# [12] = target: T3, Gαq; experiment: as above; type: binding; conditions: antibody-d2 10 nM, 20 h
# Method: as §7, §8, §9, §10, §11, §12
# [13] = target: Gαs (Homo sapiens, UniProt P63092); experiment: as above; type: binding; conditions: antibody-d2 10 nM, 20 h
# Method: as §7, §8, §9, §10, §11, §12
# [14] = target: T7, Gαz (Homo sapiens, UniProt P19086); experiment: as above; type: binding; conditions: antibody-d2 10 nM, 20 h
# T7 construct: host or cells: HEK293
# Method: as §7, §8, §9, §10, §11, §12
# [15] = test system: G-proteins α; experiment: TR-FRET signal of labeled antibody combined with fluorescent GTP analog on HEK293 membranes expressing the DOR receptor; type: binding; conditions: for FRET signal with GTPgN-octyl-C2-Europium cryptate: antibody labeled with d2 10 nM, GTP analog 6 nM, FIG. 11
# Method: as §1, §2, §3
# T5 sequence (P63096 whole entry): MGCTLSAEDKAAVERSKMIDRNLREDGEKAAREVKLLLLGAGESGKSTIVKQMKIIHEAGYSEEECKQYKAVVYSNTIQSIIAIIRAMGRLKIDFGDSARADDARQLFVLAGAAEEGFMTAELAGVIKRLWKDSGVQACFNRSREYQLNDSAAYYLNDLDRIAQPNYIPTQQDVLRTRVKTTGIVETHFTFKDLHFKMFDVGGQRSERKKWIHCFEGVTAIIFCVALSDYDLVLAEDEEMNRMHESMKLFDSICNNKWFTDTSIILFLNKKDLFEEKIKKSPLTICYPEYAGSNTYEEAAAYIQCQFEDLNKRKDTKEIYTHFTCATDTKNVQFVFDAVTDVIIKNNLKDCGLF
# Chain of Gαo (P09471 whole entry): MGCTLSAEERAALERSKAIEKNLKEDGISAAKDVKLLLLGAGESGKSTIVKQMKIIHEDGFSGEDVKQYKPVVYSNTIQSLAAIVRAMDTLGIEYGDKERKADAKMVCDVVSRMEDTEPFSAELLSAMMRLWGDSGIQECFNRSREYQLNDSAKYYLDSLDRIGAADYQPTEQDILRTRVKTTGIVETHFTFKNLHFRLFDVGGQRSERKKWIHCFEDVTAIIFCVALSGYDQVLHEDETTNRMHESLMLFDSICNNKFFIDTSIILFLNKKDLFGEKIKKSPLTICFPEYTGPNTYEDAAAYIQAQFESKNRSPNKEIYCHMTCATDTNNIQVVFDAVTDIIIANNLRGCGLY
# Chain of Delta Opioid GPCR (P41143 whole entry): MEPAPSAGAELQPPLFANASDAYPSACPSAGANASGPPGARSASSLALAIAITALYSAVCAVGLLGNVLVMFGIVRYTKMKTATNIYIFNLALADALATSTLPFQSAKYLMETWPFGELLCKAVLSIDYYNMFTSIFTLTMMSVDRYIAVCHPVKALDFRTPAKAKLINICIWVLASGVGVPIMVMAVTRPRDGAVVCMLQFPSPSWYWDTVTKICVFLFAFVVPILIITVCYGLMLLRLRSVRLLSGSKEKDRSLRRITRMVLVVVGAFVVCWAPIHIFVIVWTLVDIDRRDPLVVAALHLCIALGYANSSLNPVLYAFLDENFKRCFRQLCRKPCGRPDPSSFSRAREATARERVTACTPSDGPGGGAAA
# T4 sequence (P41143 whole entry): as above
# Chain of Gαs (P63092 whole entry): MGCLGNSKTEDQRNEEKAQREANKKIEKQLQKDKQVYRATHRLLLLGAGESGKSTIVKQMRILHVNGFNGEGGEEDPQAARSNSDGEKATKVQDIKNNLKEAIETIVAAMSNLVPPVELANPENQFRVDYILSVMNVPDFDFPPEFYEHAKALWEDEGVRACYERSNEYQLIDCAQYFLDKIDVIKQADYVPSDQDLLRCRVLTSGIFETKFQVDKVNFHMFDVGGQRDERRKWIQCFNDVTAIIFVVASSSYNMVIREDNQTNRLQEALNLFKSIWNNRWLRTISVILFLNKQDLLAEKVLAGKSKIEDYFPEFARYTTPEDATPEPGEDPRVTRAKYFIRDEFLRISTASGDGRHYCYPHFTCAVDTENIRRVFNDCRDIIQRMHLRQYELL
# T6 sequence (P08754 whole entry): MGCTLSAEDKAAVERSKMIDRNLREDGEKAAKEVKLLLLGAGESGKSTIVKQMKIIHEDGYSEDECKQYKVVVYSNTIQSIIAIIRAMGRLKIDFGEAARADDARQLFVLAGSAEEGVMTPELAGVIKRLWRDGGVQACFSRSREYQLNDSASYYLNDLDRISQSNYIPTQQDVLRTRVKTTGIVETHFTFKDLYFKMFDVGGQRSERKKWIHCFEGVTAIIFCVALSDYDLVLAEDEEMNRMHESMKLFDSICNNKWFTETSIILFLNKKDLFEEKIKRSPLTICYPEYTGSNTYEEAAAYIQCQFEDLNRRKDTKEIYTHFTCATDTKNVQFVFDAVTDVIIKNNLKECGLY
# T7 sequence (P19086 whole entry): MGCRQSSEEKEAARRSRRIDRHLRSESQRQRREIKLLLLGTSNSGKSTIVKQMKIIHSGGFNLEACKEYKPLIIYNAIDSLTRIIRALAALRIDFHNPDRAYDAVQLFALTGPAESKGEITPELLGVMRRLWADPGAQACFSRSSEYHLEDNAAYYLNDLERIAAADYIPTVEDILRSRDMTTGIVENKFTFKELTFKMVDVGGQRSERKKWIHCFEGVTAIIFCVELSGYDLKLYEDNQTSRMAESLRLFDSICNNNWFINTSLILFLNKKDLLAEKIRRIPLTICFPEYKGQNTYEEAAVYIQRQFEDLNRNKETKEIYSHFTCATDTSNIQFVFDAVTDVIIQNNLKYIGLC
# Chain of Gαi2 (P04899 whole entry): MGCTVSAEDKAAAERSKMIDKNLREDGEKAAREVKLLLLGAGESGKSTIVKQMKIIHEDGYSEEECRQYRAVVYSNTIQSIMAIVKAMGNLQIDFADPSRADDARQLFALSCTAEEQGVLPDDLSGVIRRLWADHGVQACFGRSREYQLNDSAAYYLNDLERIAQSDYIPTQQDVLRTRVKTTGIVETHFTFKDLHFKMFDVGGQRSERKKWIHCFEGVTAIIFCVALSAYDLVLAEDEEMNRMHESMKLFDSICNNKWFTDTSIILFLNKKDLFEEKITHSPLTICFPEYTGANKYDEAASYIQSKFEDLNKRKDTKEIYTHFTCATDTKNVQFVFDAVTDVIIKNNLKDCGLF
molecule,measurement,setting,value
C=CCN1C[C@H](C)N([C@@H](c2ccccc2)c2ccc(C(=O)N(CC)CC)cc2)C[C@H]1C [SNC162],activation of the DOR receptors overexpressed in the membranes,[1],caused activation of the DOR receptors
Oc1ccc2c3c1O[C@H]1c4[nH]c5ccccc5c4C[C@@]4(O)[C@@H](C2)N(CC2CC2)CC[C@]314 [Naltrindole],"effect on activation by SNC162 (TR-FRET signal, HTRF ratio)",[2],inhibited
"DSV36S: anti-G-protein alpha antibody; VH consists of SEQ ID NO: 14, VL of SEQ ID NO: 15; generated by Cisbio Bioassays (antibody, V domains shown, Variable domain of the heavy chain (VH); Light Chain Variable Domain (VL), anti-G-protein alpha antibody; generated by Cisbio Bioassays) VH: EVQLQQSGAELVRPGALVKLSCKASGFNIKDYYMHWVKQRPEQGLEWIGWIDPENGNTIYDPKFQGKASITADTSSNTAYLQLSSLTSEDTAVYYCTRGGGYYSDWYFDVWGAGTTVTVSS VL: QIVLTQSPAIMSASPGEKVTMTCSASSSVSYMHWYQQKSGTSPKRWIYDTSKLASGVPARFSGSGSGTSYSLTISSMEAEDAATYYCQQWSSNPPITFGAGTKLELK",signal and affinity depending on the state of G-protein αi1,[3]; G-protein αi1 bound to a nucleotide (in particular GTPgS) versus empty,higher signal and higher affinity
same,capacity for binding the G-protein αi1 (HTRF signal),"[3]; antibodies labeled with d2, in the presence and in the absence of nucleotide (GTPgS or GDP)",capable of binding the G-protein αi1
same,inhibition of the HTRF signal obtained with antibody SC13533-d2,[4],not capable of inhibiting
same,inhibition of the HTRF signal obtained with antibody DSV36S-d2,[5],completely inhibited
same,HTRF signal with anti-Twin-Strep-tag-Lumi4 Tb,[6],did not give an HTRF signal
same,HTRF signal with anti-Twin-Strep-tag-Lumi4 Tb,[7],did not give an HTRF signal
same,HTRF signal with anti-Twin-Strep-tag-Lumi4 Tb,[8],positive HTRF signal
same,HTRF signal with anti-Twin-Strep-tag-Lumi4 Tb,[9],positive HTRF signal
same,HTRF signal with anti-Twin-Strep-tag-Lumi4 Tb,[10],positive HTRF signal
same,HTRF signal with anti-Twin-Strep-tag-Lumi4 Tb,[11],positive HTRF signal
same,HTRF signal with anti-Twin-Strep-tag-Lumi4 Tb,[12],did not give an HTRF signal
same,HTRF signal with anti-Twin-Strep-tag-Lumi4 Tb,[13],did not give an HTRF signal
same,HTRF signal with anti-Twin-Strep-tag-Lumi4 Tb,[14],positive HTRF signal
same,FRET signal with GTPgN-octyl-C2-Europium cryptate,[15]; condition buffer (absence of SNC162),moderate but significant FRET signal
same,FRET signal with GTPgN-octyl-C2-Europium cryptate,[15]; on adding SNC162 10 μM,increase of this FRET signal
same,FRET signal with Europium GTPgN-octyl-C2-cryptate,"[15]; unactivated membrane preparations, antibodies labeled with d2, FIG. 12",increase of the FRET signal

# — patent US12522656B2, “Anti-G-protein alpha antibody” (CISBIO BIOASSAYS, priority 2020, dated 2026)
